Results reported in paper PMC3765442 (PLoS ONE, 2013).

Legend:
[1] = target: the molecule itself; experiment: AUC; absorption sedimentation equilibrium at 37°C; 1 to 60 µM (monomer equivalents); 14'000, 17'000 and 26'000 rpm; buffer as for velocity runs but without BSA; dimer to monomers
[2] = target: the molecule itself; experiment: AUC; fluorescence sedimentation velocity (GFP signal at 488 nm), 22°C; dilution series from about 500 to about 0.5 nM (monomer equivalents); 20 mM Tris-HCl pH 7.5, 300 mM NaCl, 0.2 mg/ml BSA, 2 mM DTT or 0.1 mM TCEP; samples incubated 16 hours at 22°C; dimer to monomers; apparent Kd
[3] = target: the molecule itself; experiment: SEC-MALS; Superdex 200 10/30 with in-line multi-angle light scattering; 1 to 4 mg/ml injected in 100 µl (about 1 µM at the peak); 20 mM Tris-HCl pH 7.5, 300 mM NaCl, 2 mM DTT; room temperature; single experiments

B1: EB1c-GFP (C-terminal domain of human EB1, Asp191-Tyr268, C-terminally EGFP-His-tagged) (domain or fragment, UniProt Q15691 191-268, looked up)
chain: DEAAELMQQVNVLKLTVEDLEKERDFYFGKLRNIELICQENEGENDPVLQRIVDILYATDEGFVIPDEGGPQEEQEEY
notes: Calculated monomer mass 38.3 kDa; also called C-terminal domain of EB1; not shown: EGFP, C-terminal, kept
stoichiometry N [1]: 2

B2: EB1c-GFP[A206K] (domain or fragment, human, UniProt Q15691 191-268, looked up)
chain: B1 chain
notes: As m3, but Ala206 of the EGFP tag is mutated to lysine; the EB1c part is unchanged; not shown: EGFP with A206K, C-terminal, kept
stoichiometry N [2]: 2

B3: EB3c-GFP (C-terminal domain of human EB3, Ala200-Tyr281, C-terminally EGFP-His-tagged) (domain or fragment, UniProt Q9UPY8 200-281, looked up)
chain: AQILELNQQLVDLKLTVDGLEKERDFYFSKLRDIELICQEHESENSPVISGIIGILYATEEGFAPPEDDEIEEHQQEDQDEY
notes: Calculated monomer mass 38.7 kDa; also called C-terminal domain of EB3; not shown: EGFP, C-terminal, kept
stoichiometry N [3]: 2 | Kd [2]: 2 nM
